# Reference: patent US20250163145A1 (SHIONOGI, published 2025)
# Where no end group is shown, it is not given here.
# T1: epitope peptide Cys-CE3C long (also: biotin label, site not given here)
# T1 peptide: CSVNVDKQPKYEYSL
# Biological target: T1, epitope peptide Cys-CE3C long
# Assay: ELISA, supernatant IgG on anti-human IgG plate, biotin-peptide + streptavidin-HRP; titer per unit IgG
# Method: The amount of IgG in the supernatant was determined by the following method. To evaluate the amount of IgG in the supernatant, the culture supernatant was added to an anti-human IgG antibody (manufactured by Jackson) immobilized plate, after reacting at room temperature for 3 hours, washed twice with ELISA wash buffer, and HRP-labeled anti-human IgG antibody (manufactured by Jackson) was reacted at 4° C. overnight. After washing twice with ELISA wash buffer and developing color by adding TMB-Substrate Chromogen (manufactured by Thermo Fisher Scientific), the reaction was stopped with an equal volume of 0.5N sulfuric acid, and the absorbance at 450 nm was measured to calculate (A) the dilution factor of the culture supernatant at which the OD was 1.0.
# The titer of IgG in the supernatant against the epitope peptide was determined by the following method. In order to evaluate the titer of IgG in the supernatant against epitope peptides, the culture supernatant was added to an anti-human IgG antibody (manufactured by Jackson) immobilized plate, reacted for 3 hours at room temperature, and then washed twice with ELISA wash buffer, and a biotin-labeled epitope peptide (Cys-CE3C long: SEQ ID NO: 13) and Streptavidin-HRP (manufactured by PIERCE) were added and reacted overnight at 4° C. After washing twice with ELISA wash buffer and developing color by adding TMB-Substrate Chromogen (manufactured by Thermo Fisher Scientific), the reaction was stopped with an equal volume of 0.5N sulfuric acid, the absorbance at 450 nm was measured to calculate (B) the dilution ratio of the culture supernatant at which the OD was 1.0.
# The titer (ratio) against the epitope peptide (Cys-CE3C long: SEQ ID NO: 13) per unit IgG amount was calculated as (B)/(A).
row,Binder,(B)/(A) titer (ratio) against the epitope peptide per unit IgG amount
1,"humanized 15H11 CDR graft IGKV1-39 / IGHV1-2 (R94P) (antibody, human IgG4 S228P, kappa, V domains shown, hIgG4Pro/hIgK) VH: QVQLVQSGAEVKKPGASVKVSCKASGYTFTDYNMHWVRQAPGQGLEWMGRINPKNGVINSNEKFKDRVTMTRDTSISTAYMELSRLRSDDTAVYYCAPSYYGGNTDAYWGQGTLVTVSS VL: DIQMTQSPSSLSASVGDRVTITCRASESVDNYGISFMNWYQQKPGKAPKLLIYAASSQGSGVPSRFSGSGSGTDFTLTISSLQPEDFATYYCQQSKEFPWTFGGGTKVEIKR",0.14
2,"humanized 15H11 CDR graft IGKV3-11 / IGHV1-2 (R94P) (antibody, human IgG4 S228P, kappa, V domains shown, hIgG4Pro/hIgK) VH: QVQLVQSGAEVKKPGASVKVSCKASGYTFTDYNMHWVRQAPGQGLEWMGRINPKNGVINSNEKFKDRVTMTRDTSISTAYMELSRLRSDDTAVYYCAPSYYGGNTDAYWGQGTLVTVSS VL: EIVLTQSPATLSLSPGERATLSCRASESVDNYGISFMNWYQQKPGQAPRLLIYAASSQGSGIPARFSGSGSGTDFTLTISSLEPEDFAVYYCQQSKEFPWTFGGGTKVEIKR",0.15
3,"humanized 15H11 CDR graft IGKV1-39 / IGHV1-3 (R94P) (antibody, human IgG4 S228P, kappa, V domains shown, hIgG4Pro/hIgK) VH: QVQLVQSGAEVKKPGASVKVSCKASGYTFTDYNMHWVRQAPGQRLEWMGRINPKNGVINSNEKFKDRVTITRDTSASTAYMELSSLRSEDTAVYYCAPSYYGGNTDAYWGQGTLVTVSS VL: DIQMTQSPSSLSASVGDRVTITCRASESVDNYGISFMNWYQQKPGKAPKLLIYAASSQGSGVPSRFSGSGSGTDFTLTISSLQPEDFATYYCQQSKEFPWTFGGGTKVEIKR",0.12
4,"humanized 15H11 CDR graft IGKV1-39 / IGHV1-46 (R94P) (antibody, human IgG4 S228P, kappa, V domains shown, hIgG4Pro/hIgK) VH: QVQLVQSGAEVKKPGASVKVSCKASGYTFTDYNMHWVRQAPGQGLEWMGRINPKNGVINSNEKFKDRVTMTRDTSTSTVYMELSSLRSEDTAVYYCAPSYYGGNTDAYWGQGTLVTVSS VL: DIQMTQSPSSLSASVGDRVTITCRASESVDNYGISFMNWYQQKPGKAPKLLIYAASSQGSGVPSRFSGSGSGTDFTLTISSLQPEDFATYYCQQSKEFPWTFGGGTKVEIKR",0.09

# Second part, the binder after the results:
row,(B)/(A) titer (ratio) against the epitope peptide per unit IgG amount,Binder
1,0.16,"humanized 15H11 CDR graft IGKV1-39 / IGHV7-4-1 (R94P) (antibody, human IgG4 S228P, kappa, V domains shown, hIgG4Pro/hIgK) VH: QVQLVQSGSELKKPGASVKVSCKASGYTFTDYNMHWVRQAPGQGLEWMGRINPKNGVINSNEKFKDRFVFSLDTSVSTAYLQISSLKAEDTAVYYCAPSYYGGNTDAYWGQGTLVTVSS VL: DIQMTQSPSSLSASVGDRVTITCRASESVDNYGISFMNWYQQKPGKAPKLLIYAASSQGSGVPSRFSGSGSGTDFTLTISSLQPEDFATYYCQQSKEFPWTFGGGTKVEIKR"
2,0.03,"humanized 15H11 CDR graft IGKV1-39 / IGHV1-2 (antibody, human IgG4 S228P, kappa, V domains shown, hIgG4Pro/hIgK) VH: QVQLVQSGAEVKKPGASVKVSCKASGYTFTDYNMHWVRQAPGQGLEWMGRINPKNGVINSNEKFKDRVTMTRDTSISTAYMELSRLRSDDTAVYYCARSYYGGNTDAYWGQGTLVTVSS VL: DIQMTQSPSSLSASVGDRVTITCRASESVDNYGISFMNWYQQKPGKAPKLLIYAASSQGSGVPSRFSGSGSGTDFTLTISSLQPEDFATYYCQQSKEFPWTFGGGTKVEIKR"
3,0.13,"humanized 15H11 CDR graft IGKV1-39 / IGHV1-18 (R94P) (antibody, human IgG4 S228P, kappa, V domains shown, hIgG4Pro/hIgK) VH: QVQLVQSGAEVKKPGASVKVSCKASGYTFTDYNMHWVRQAPGQGLEWMGRINPKNGVINSNEKFKDRVTMTTDTSTSTAYMELRSLRSDDTAVYYCAPSYYGGNTDAYWGQGTLVTVSS VL: DIQMTQSPSSLSASVGDRVTITCRASESVDNYGISFMNWYQQKPGKAPKLLIYAASSQGSGVPSRFSGSGSGTDFTLTISSLQPEDFATYYCQQSKEFPWTFGGGTKVEIKR"
4,0.05,"humanized 15H11 CDR graft IGKV3-11 / IGHV1-2 (antibody, human IgG4 S228P, kappa, V domains shown, hIgG4Pro/hIgK) VH: QVQLVQSGAEVKKPGASVKVSCKASGYTFTDYNMHWVRQAPGQGLEWMGRINPKNGVINSNEKFKDRVTMTRDTSISTAYMELSRLRSDDTAVYYCARSYYGGNTDAYWGQGTLVTVSS VL: EIVLTQSPATLSLSPGERATLSCRASESVDNYGISFMNWYQQKPGQAPRLLIYAASSQGSGIPARFSGSGSGTDFTLTISSLEPEDFAVYYCQQSKEFPWTFGGGTKVEIKR"
5,0.12,"humanized 15H11 CDR graft IGKV3-11 / IGHV1-3 (R94P) (antibody, human IgG4 S228P, kappa, V domains shown, hIgG4Pro/hIgK) VH: QVQLVQSGAEVKKPGASVKVSCKASGYTFTDYNMHWVRQAPGQRLEWMGRINPKNGVINSNEKFKDRVTITRDTSASTAYMELSSLRSEDTAVYYCAPSYYGGNTDAYWGQGTLVTVSS VL: EIVLTQSPATLSLSPGERATLSCRASESVDNYGISFMNWYQQKPGQAPRLLIYAASSQGSGIPARFSGSGSGTDFTLTISSLEPEDFAVYYCQQSKEFPWTFGGGTKVEIKR"
6,0.26,"humanized 15H11 CDR graft IGKV7-3 / IGHV7-4-1 (R94P) (antibody, human IgG4 S228P, kappa, V domains shown, hIgG4Pro/hIgK) VH: QVQLVQSGSELKKPGASVKVSCKASGYTFTDYNMHWVRQAPGQGLEWMGRINPKNGVINSNEKFKDRFVFSLDTSVSTAYLQISSLKAEDTAVYYCAPSYYGGNTDAYWGQGTLVTVSS VL: DIVLTQSPASLAVSPGQRATITCRASESVDNYGISFMNWYQQKPGQPPKLLIYAASSQGSGVPARFSGSGSGTDFTLTINPVEANDTANYYCQQSKEFPWTFGGGTKVEIKR"

# Biological target: T1, epitope peptide Cys-CE3C long
# Assay: competitive ELISA, unlabeled vs biotin-labeled peptide, antibody on anti-human IgG plate
# Method: A diluted solution of the obtained recombinant humanized antibody, a biotin-labeled immunogen peptide, and Streptavidin-HRP (manufactured by PIERCE) were added to an anti-human IgG antibody-immobilized plate, and reacted overnight at 4° C. […] Next, a recombinant human antibody at the dilution rate, a biotin-labeled immunogen peptide, and Streptavidin-HRP (manufactured by PIERCE) were added. At the same time, a dilution series of unlabeled immunogenic peptide was added and reacted overnight at 4° C. After washing twice with ELISA wash buffer, TMB-Substrate Chromogen (manufactured by Thermo Fisher Scientific) was added to develop color, the reaction was stopped with an equal amount of 0.5N sulfuric acid, and the absorbance at 450 nm was measured. The concentration of the unlabeled peptide which attenuated the signal of the biotin-labeled peptide by half was defined as the affinity (IC50).
row,Binder,IC50 [nM]
1,"h15H11-41 (antibody, human IgG4 S228P, kappa, V domains shown, hIgG4Pro/hIgK) VH: QVQLVQSGSELKKPGASVKVSCKASGYTFTDYNMHWVRQAPGRSLEWMGRINPKNGVINSNEKFKDRFVFSLDTSVSTAYLQISSLKAEDTAVYYCAPSYFGGNSDAYWGQGTLVTVSS VL: DIVLTQSPASLAVSPGQRATITCRASDSVDNYGISFLNWFQQKPGQPPKLLIYAASSQGSGVPARFSGSGSGTDFTLTINPMEANDTANYYCQQSKEFPWTFGGGTKVEIKR",1.07
2,"h15H11-42 (antibody, human IgG4 S228P, kappa, V domains shown, hIgG4Pro/hIgK) VH: QVQLVQSGSELKKPGASVKVSCKASGYTFTDYNMHWVRQAPGRSLEWMGRINPKNGVINSNEKFKDRFVFSLDTSVSTAYLQISSLKAEDTAVYYCAPSYYGGKTDAYWGQGTLVTVSS VL: DIVLTQSPASLAVSPGQRATITCRASESVDNYGISFMNWFQQKPGQPPKLLIYAASSQGSGVPARFSGSGSGTDFTLTINPMEANDTANYYCQQSKEFPWTFGGGTKVEIKR",0.83
3,"h15H11-38 (antibody, human IgG4 S228P, kappa, V domains shown, hIgG4Pro/hIgK) VH: QVQLVQSGSELKKPGASVKVSCKASGYTFTDYNMHWVRQAPGRSLEWMGRINPKNGVIKSNEKFKDRFVFSLDTSVSTAYLQISSLKAEDTAVYYCAPSYYGGNTDAYWGQGTLVTVSS VL: DIVLTQSPASLAVSPGQRATITCRVSDSVDNYGISFLNWFQQKPGQPPKLLIYAASSQGSGVPARFSGSGSGTDFTLTINPMEANDTANYYCQQSKEFPWTFGGGTKVEIKR",1.04

# The remaining lines, values ahead:
row,IC50 [nM],Binder
1,1.04,"h15H11-37 (antibody, human IgG4 S228P, kappa, V domains shown, hIgG4Pro/hIgK) VH: QVQLVQSGSELKKPGASVKVSCKASGYTFTDYNMHWVRQAPGRSLEWMGRINPKNGVINSNEKFKDRFVFSLDTSVSTAYLQISSLKAEDTAVYYCAPSYYGGNQDAYWGQGTLVTVSS VL: DIVLTQSPASLAVSPGQRATITCRVSDSVDNYGISFLNWFQQKPGQPPKLLIYAASSQGSGVPARFSGSGSGTDFTLTINPMEANDTANYYCQQSKEFPWTFGGGTKVEIKR"
2,1.06,"h15H11-40 (antibody, human IgG4 S228P, kappa, V domains shown, hIgG4Pro/hIgK) VH: QVQLVQSGSELKKPGASVKVSCKASGYTFTDYNMHWVRQAPGRSLEWMGRINPKNGVINLNEKFKDRFVFSLDTSVSTAYLQISSLKAEDTAVYYCAPSYYGGNTDAYWGQGTLVTVSS VL: DIVLTQSPASLAVSPGQRATITCRVSDSVDNYGISFLNWFQQKPGQPPKLLIYAASSQGSGVPARFSGSGSGTDFTLTINPMEANDTANYYCQQSKEFPWTFGGGTKVEIKR"
3,1.05,"h15H11-39 (antibody, human IgG4 S228P, kappa, V domains shown, hIgG4Pro/hIgK) VH: QVQLVQSGSELKKPGASVKVSCKASGYTFTDYNMHWVRQAPGRSLEWMGRINPKNGVINYNEKFKDRFVFSLDTSVSTAYLQISSLKAEDTAVYYCAPSYYGGNTDAYWGQGTLVTVSS VL: DIVLTQSPASLAVSPGQRATITCRASDSVDNYGISFLNWFQQKPGQPPKLLIYAASSQGSGVPARFSGSGSGTDFTLTINPMEANDTANYYCQQSKEFPWTFGGGTKVEIKR"
4,0.83,"h15H11-43 (antibody, human IgG4 S228P, kappa, V domains shown, hIgG4Pro/hIgK) VH: QVQLVQSGSELKKPGASVKVSCKASGYTFTDYNMHWVRQAPGRSLEWMGRINPKNGVINSNEKFKDRFVFSLDTSVSTAYLQISSLKAEDTAVYYCAPSYYGGNTDAYWGQGTLVTVSS VL: DIVLTQSPASLAVSPGQRATITCRASESVDNYGFSFMNWFQQKPGQPPKLLIYAASSQGSGVPARFSGSGSGTDFTLTINPMEANDTANYYCQQSKEFPWTFGGGTKVEIKR"
